{"source": "the nanobody polyreactivity screen of Harvey et al. (2022)", "data": [{"experiment": "yeast display, Sf9 membrane polyspecificity reagent, FACS + sequencing; frameworks hold sequencing errors", "outline": "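In a synthetic yeast display library (Saccharomyces cerevisiae BJ5465), nanobody expression was induced with galactose for 36–48 hours. FACS gates were set low and high (top ~1%) using anti-HA fluorescence for expression and streptavidin fluorescence for binding of the Sf9 membrane reagent. Each polyreactivity label is drawn from the gate of origin.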", "values": [{"sequence": "QVQLVESGGGLVQAGGSLRLSCAASGRIFTRNGMGWYRQAPGKERELVAASTRGGRTNYADSVKGRFTISRDNAKNTVYLQMNSLKPEDTAVYYCAAGFPWSYYGSYDYWGQGTQVTVSS", "polyreactivity (PSR sort gate)": "high polyreactivity"}, {"sequence": "QVQLVESGGGLVQAGGSLRLSCAASGIYAYVMGWYRPAPGKERELVAAISGTGGRTYYADSVKGRFTISRDNAKNTVYLQMNSLKPEDTAVYYCAARGIYQPKTFDYWGQGTQVTVSS", "polyreactivity (PSR sort gate)": "high polyreactivity"}, {"sequence": "QVQLVESGGGLVQAGGSLRLSCAASGFTFNYAMGWYRQAPGKERELVAAISSAGTTYYADSVKGRFTISRDNAKNTVYLQMNSLKPEDTAVYYCAALARPKQDRYRYYYWGQGTQVTVSS", "polyreactivity (PSR sort gate)": "high polyreactivity"}, {"sequence": "QVQLQESGGGLVQADGSLRLSCAASGSIFGYYYMGWYRQAPGKDRELVATINICGITNYADSVKGRFTISRDNAKNTVYLQMNSLKPDDTAVYYCAADEYAQRDLGYWGQGTQVTVSR", "polyreactivity (PSR sort gate)": "low polyreactivity"}, {"sequence": "QVLLVESGGGLVQAGGSLRLSCAASGFIFDVYAMGWYRQAPGKERELVAAISSSGGRKYYADSVKGRFTISRDNAKNTVYLQMNSLKPEDTAVYYCAAKTHSRTKVYTADYWGQGTQVTVSS", "polyreactivity (PSR sort gate)": "high polyreactivity"}, {"sequence": "QVQLVETGGGLVQAGGSHRLSCAASGSIFSSYVMGWYRQAPGKERELVDAISSGGRTYYADSVKGRFTISRDNAKNTVYLQMNSLKPDETAVYYCAARTRRYPRPGLSPGNYWGQGTQVTVSS", "polyreactivity (PSR sort gate)": "high polyreactivity"}, {"sequence": "QDQLVESGGGLVQAGGSLRLSCAASGYIFSTYAMGWYRQAPGKERELVAAISSSGGSTYYADSVKGRFTISRDNAKNTVFLQMNSLKPEDTAVYYCYAGKHVRQRYDHWGQGTQVSVSS", "polyreactivity (PSR sort gate)": "high polyreactivity"}, {"sequence": "QVQLVESGRGLVQAGGSLRLSCAASGRTFYSNAMGWYRQAPGKERELVAGINWSGVSTYYADSVKGRFTISRDNAKNTVYLQMNSLKPEDTAVYYCAADTYAGYNGNYWGQGTQVTVSS", "polyreactivity (PSR sort gate)": "high polyreactivity"}, {"sequence": "QVQLLESAGGLVQAGGSLRLICAASGSTFYNYAMGWYRQAPGKERELVDSITSSGVSTYYADSVKGRFTISRDIAKNTVYLQMNSLKPDDTAVYYCNADDGYGQVHSISTYEMDYWGQGTQVTVSS", "polyreactivity (PSR sort gate)": "low polyreactivity"}, {"sequence": "QVQLVESGGGLVQAGGRLRLSCAASGYIFDDKAMGWYRQAPGKERELVATNYADSVKGRFTISRDNAKNTVYLQMNSLKPEATAVYYCAAEAFYPWTSSRYIAYYYWGQGTQVTVSS", "polyreactivity (PSR sort gate)": "low polyreactivity"}, {"sequence": "QVPLVESGGGLVQAGGSLRLSCAASGSIFGQYAMGWYRQAPGKERELVAAIRDGTGSTYYAVSVKGRFTISRDNAKNTVYVQMNSLKPEDRAVYYCAADYIWTSIVHYEYWGQGTEVTVSS", "polyreactivity (PSR sort gate)": "high polyreactivity"}, {"sequence": "QVQLVESGGGLLQAGGSLRLSCAASGSTFRIYAMGWYRQAPGKERELVAAIRRRGASTYYADSVKGRFTISRDNAKNTVYLQMNSLKQEDTAVYYCAASYLWDRVPGRGIHDYWGQGTQVTVSS", "polyreactivity (PSR sort gate)": "high polyreactivity"}, {"sequence": "QVQLVESGGGLVQAGGSLRLSCAASGFIFDTYAMGWYRQAPGKERDLVAVISSGGSTYYADSVKGRVTISRDNAKNTVYLQMNSLKPEDTAVYYCAADSGYLGIYGDDYSWGQGTQVSVSS", "polyreactivity (PSR sort gate)": "low polyreactivity"}, {"sequence": "QVQLVESGRGLVQAGGSLRISCAASGSTFYPNAMGWYRQAPGKEREFVAAISTSAGRTYYADSVKGRFTISRDNAKNTVYLQMNSLKPEDTAVYYCNARYWVYYVYEFDSWGQGTQVTVSS", "polyreactivity (PSR sort gate)": "low polyreactivity"}, {"sequence": "QVQLVESGGGLVQAGGSLRLSCAASGSTFWVNAMGWYRQAPGKERELVAAITVRGTSTYYADSVKGRFTISRDNAKNTVYLQMNSLKPEDTAVYYCAKGSLGSTRYYYWGQGTQVTVSS", "polyreactivity (PSR sort gate)": "low polyreactivity"}, {"sequence": "QVQLVESGGGLVQSGRSLRLICAASGSTSTQYAMGWYRQAPGKERELVAGITQSGGSTYYADSVKGRFTISRDNAKNTVYLQMNSLKPEDTAVYYCAAPPGYTGRYEYYYWGQGTQVTVSS", "polyreactivity (PSR sort gate)": "high polyreactivity"}, {"sequence": "QVQLVESGGGLVQAGGSLRLSCAASGIIFTPYNMGWYRQAPGKERELVAASTGSGGSTYYADSVKGRFTISRDNAKNTVDLQMNSLKPEDTAVYYCAAYKQYRFYRYDYWGQGTQVTVSS", "polyreactivity (PSR sort gate)": "high polyreactivity"}, {"sequence": "QVQLVESGGGLVQAGGSLRLSCAASGRTFADNAMGWYRQAPGKERELVASISSGTSTNYADSVKGRFTISRDNAKNTVYLQMNSLKPEDTAVYYCNAYGPIWYTAVLGVGRYYGWTDYWGQGTQVTVSS", "polyreactivity (PSR sort gate)": "low polyreactivity"}, {"sequence": "QVQLVESGAGLVQAGGSLRLSCAASGRTIGVYAMGWYRQAPGKERELVAAISWSGGTTYYADSVKGRFTISRDNAKNTVYLQMNSLKPEDTAVYYCAADSYTEVDYWGQGTQVTVSS", "polyreactivity (PSR sort gate)": "low polyreactivity"}, {"sequence": "QVQLVESGGGLVQAGGSLRLSCAASGSIFVSYAMGWYRQAPGKEREFVAAITRSGGSTYYADSVKGRFTISRDNAKNTVYLQMNSLKPEDTAVYYCAARSYLGAYRRYYWGQGTQVTVSS", "polyreactivity (PSR sort gate)": "high polyreactivity"}, {"sequence": "QVQLVESGGGLVQAGGSLRISCAASGIILSDNAMGWYRQAPGKEREFVAAITGAGGSTYYADSVKGRFTISRDNAKNTVYLQMNSLKPEDTAVYYCAAESYPLSYSSATLSPSYEYWGQGTQVTVSS", "polyreactivity (PSR sort gate)": "low polyreactivity"}, {"sequence": "QVQLVESGGGLVQAGGSLRLSCAASRSTFYLNAMGWYRQAPGKERELVAAISSGGRTYYADSVKGRFTISRDNAKNTVYLQMNSLKPVDTAVYYCNAVRYLRGAYNYWGQGTQVTVSS", "polyreactivity (PSR sort gate)": "high polyreactivity"}, {"sequence": "QVQLVESGGGLVQAGGSLRLSCAASGGSFNNYAMGWYRQAPGKERELVAAITYSGVRTNYADSVKGRFTISRDNAKNTVYLQMNSLKPEDTAVYYCAADGLSNVRQMDYWGQGTQVTVSS", "polyreactivity (PSR sort gate)": "low polyreactivity"}, {"sequence": "QVQLVESGGGLVQAGGSLRLSCAASGRTFYYNVMGWYRQAPGKERELVAAISTGVSTNYADSVKGRFTISRDNAKNTVYLQMNSLKPEDTAVYYCNARSYRWYRPVYRYDYWGQGTQVNVSS", "polyreactivity (PSR sort gate)": "high polyreactivity"}, {"sequence": "QVLLVESGGGLVQAAGSLRLSSAASGRIFASYPLGWYRQAPGKERELVAAISKSGGRTYYADSVKGRFTISRDNAKNTVYVQMNSLKPVDTAVYDCAAFFWTRSGTPNFDYWGQGTQVTVSS", "polyreactivity (PSR sort gate)": "high polyreactivity"}, {"sequence": "QVQLVESGGGLVQAGGSLSLICAASGRIYYRYHMGWYRQAPGKERELVATISRSGGSTNYADSVKGRFTISRDNAKNTVYLQMNSLNPEYTAVYYCNALYLSTRSGDYWGQGTQVTVSS", "polyreactivity (PSR sort gate)": "high polyreactivity"}, {"sequence": "QVKLVESGGGLVQAGGSLRLSCPASGITFVYYAMGGYRQAPGKERELVAAISSAGSSTYYADSVKGRFTISRDNAKNTVYLQMNSLKPEDTAVYYCAATYYVPRLQWMDYWGQGTQVTVSS", "polyreactivity (PSR sort gate)": "low polyreactivity"}, {"sequence": "QVQLVESGGGLDQAGGSLRLSCAASGGTFAVYAMGWYRQAPGKERELVAAIDSGGRTNYADSVKGRFTISRANAKNTVYLQMNSLKPEDTAVYYCAADGGGQYVRYDYWGQGTQVTVSS", "polyreactivity (PSR sort gate)": "high polyreactivity"}, {"sequence": "QVQLVESGGGLVQAGGSLRLSCAASGSIFFDYAMGWYRQAPGKERELVAAINSGGTTNYADSVKGRFTISRDNAKNTVYLQMIQPETGRYRGLLLQRLPGYLRWYRWYDYWGQGTQVSVSS", "polyreactivity (PSR sort gate)": "low polyreactivity"}, {"sequence": "QVQLVESGGGLVQAGGSLRLSCAASGYILQINAMGWYRQAPGKERELVSAISISGGNTYYADSVKGRFTISRDNAKNNVYLQMNSLKPEDTAVYYCAAYRYYSYLVRYGLLLAYYYWGQGTQVTVSS", "polyreactivity (PSR sort gate)": "low polyreactivity"}, {"sequence": "QVQLVESGGGLVQAGGSLRLSCAASGRIFRYNAMGWYRQAPGKERELVASITSGGSTKYADSVKGRFTISRDNAKNTVYLQMNSLKPEDTAVYYCAAQRATPWPKNDYWGQGTQVTVSS", "polyreactivity (PSR sort gate)": "high polyreactivity"}, {"sequence": "QVQLVESGGGLVQAGGSLRLSCAASGRIFYVYAMGWYRAPGKERELVASISYIGGSTYYADSVKGRFTISRDNAKNTVYLQMNSLKPEDTAVYYCATDYYGYTVSYLVPSWPDDYWGQGTQVTVSS", "polyreactivity (PSR sort gate)": "low polyreactivity"}, {"sequence": "QVQLVESGGGLVQAGGSLRLSCAASGSIIWRNAMGWYIQAPGKERELVAAISYSGGSTYYADSVKGRFTISRDNAKNTVYLQMNSLKPEDTAVYYCAARTSYYVYRHPSGRYDYWGQGSQVTVSS", "polyreactivity (PSR sort gate)": "low polyreactivity"}, {"sequence": "QVQLVESGGGLDQAGGSLRLSCAASGITFQSNAMGWYRQAPGKERELVAGISGSGARTYYADSVKGRFTISRDNAKNTVYLQMNSLKPEDTAVYYCAKKSSYRYGYWGQGTQVTVSS", "polyreactivity (PSR sort gate)": "high polyreactivity"}, {"sequence": "EVQLVESGGGLVQAGGSLRLSCAASGSIYGSYAKGWYRQAPGKERELVAGITYRGSSTYYADSVKGRFTISRDNAKYTVYLLMNSLKPEDTAVYYCAADPVFDEYDYWGQGTQVTVSS", "polyreactivity (PSR sort gate)": "low polyreactivity"}, {"sequence": "QVQLVESGGGLVQAGGSLRLSCAASGSTFSTNFMGWYRQAPGKERELVAAISTIGGSTYADSVKGRFTISRDNAKNTVYLQMNSLKPEDTAVYYCAAVFRVRRKTYGYWGQGTQVTVSS", "polyreactivity (PSR sort gate)": "high polyreactivity"}, {"sequence": "HVLLVESGGGLVQAGGSLLLSCAASGSPFYTNAMVGFRKAPGKEREVVASITDGGDSTQYADSVKGRFTISRDYAKNTVYLQMNSLKPEDTAVYYCAVDYHYFQEYDTWGQGTQVTVSS", "polyreactivity (PSR sort gate)": "low polyreactivity"}, {"sequence": "QVQLVESGGGLVQAGGSLRLSCAASGFIFDRYDMGWYRQAPGKERELVAAISYSGGSTYYADSVKGRFSISRDNAKNTVYFQMNSLKPEDTAVYYCATRVGYFYYEYSYDYWGQGTQVTVSS", "polyreactivity (PSR sort gate)": "low polyreactivity"}, {"sequence": "QVQLVESGGGLVQAGGTLRLSCAASGSTFLTNAMGWNRPAPGKERELVAAIRTSGGSTYYADSVKGRFTISRDNAKNTFYVLMNSLKPEDTAVYYCAASYLRRRFSEYYYWGQGTQVTVSS", "polyreactivity (PSR sort gate)": "high polyreactivity"}, {"sequence": "QVHLVESGGGLVQAGGSLRLSCAASGFIFPNNAMGWYRQAPGKERELVARISYGGGDTHYADSVKGRFTISRDNAKNTVYLQMNSLKPEDTAVSYCAVKDGQDDYWGQGTQVTVSS", "polyreactivity (PSR sort gate)": "low polyreactivity"}, {"sequence": "QVQLVESGGGLVQAGGSLRLSCAASGITFYFYAMGWYRQAPGKERELVASITSSGSTDYADSVKGRFTISRDNAKNTVYLQMNSLKPEDTAVYYCAADVQNHFYSFGDERGFPFDYWGQGTQVTVSS", "polyreactivity (PSR sort gate)": "low polyreactivity"}, {"sequence": "QVQLVESGGGLVQAGGSLRLSCAASGITFNLYAMGWYRQAPGKERELVAGITGGGSTYYADSVKGRFTISRDNAKNTVYLQMNSLTPEDTAVYYSTARRLGARYRGYYWGQGTQVTVSS", "polyreactivity (PSR sort gate)": "high polyreactivity"}, {"sequence": "QVQLVESGGGLDQAGGSLRLSCAASGRTFYNNAMGWYRPAPGKERELVAAITRGGSTYYADSVKGRFTISRDNAKNTVYLPMNSLKPEDTAVYYCAADGFTRWGRYDYWGQGTQVTVSS", "polyreactivity (PSR sort gate)": "high polyreactivity"}]}]}
